The target in the experiment is Toll-like receptor 2 (TLR2), endogenous in HT29 cells (human (endogenous in HT29)) (UniProt O60603).
Chain of UniProt O60603 (O60603 21-784): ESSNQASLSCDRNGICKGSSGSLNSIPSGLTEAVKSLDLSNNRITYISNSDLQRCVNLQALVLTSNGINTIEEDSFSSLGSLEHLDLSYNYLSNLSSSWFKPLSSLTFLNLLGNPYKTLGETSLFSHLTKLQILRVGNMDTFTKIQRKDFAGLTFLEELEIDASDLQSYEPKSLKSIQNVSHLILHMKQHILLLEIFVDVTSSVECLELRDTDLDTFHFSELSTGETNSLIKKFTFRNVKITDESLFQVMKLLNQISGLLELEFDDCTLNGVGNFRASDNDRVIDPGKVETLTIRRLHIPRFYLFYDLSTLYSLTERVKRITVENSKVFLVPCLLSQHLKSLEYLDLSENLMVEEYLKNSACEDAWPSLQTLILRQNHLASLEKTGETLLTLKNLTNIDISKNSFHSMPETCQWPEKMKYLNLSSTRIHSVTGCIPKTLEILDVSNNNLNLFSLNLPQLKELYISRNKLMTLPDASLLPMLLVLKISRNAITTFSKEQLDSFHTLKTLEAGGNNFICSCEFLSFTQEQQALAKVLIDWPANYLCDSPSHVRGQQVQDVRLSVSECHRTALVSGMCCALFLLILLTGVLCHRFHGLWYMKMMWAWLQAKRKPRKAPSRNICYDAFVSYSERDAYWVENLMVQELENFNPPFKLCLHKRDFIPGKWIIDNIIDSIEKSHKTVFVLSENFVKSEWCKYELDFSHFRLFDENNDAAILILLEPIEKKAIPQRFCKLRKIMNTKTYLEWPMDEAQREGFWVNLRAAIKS

For the substance “GbpA domain 4, purified recombinant (domain or fragment)”, the IL-8 secreted by HT29 cells treated with 250 ng GbpA 4 for 8 h (sandwich ELISA) turned out to be 443 pg/mL.

The values above are taken from article PMC11239689.
